Measured values as given in patent US20230144436A1 (DYNE THERAPEUTICS, published 2023).
Positions count from the first letter of the chain named.

B1: 4-O12 (antibody, V domains shown)
VH: EVQLQQSGAELVRPGASVKLSCTASGFNIVDDYMHWVKQRPEQGLEWIGWIYPENADTEYASKFQGKATITADTSSNTAYLQLSSLTSEDTAVYYCTTATGTGWFAYWGQGTLVTVSA
VL: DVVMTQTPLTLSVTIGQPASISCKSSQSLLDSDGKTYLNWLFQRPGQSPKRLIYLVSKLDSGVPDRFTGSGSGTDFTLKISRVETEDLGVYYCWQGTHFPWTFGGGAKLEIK
notes: Tested as a mouse monoclonal IgG
B2: 3-E5 (antibody, V domains shown)
VH: EIQMKQSGAELVKPGASVKISCKASGYSFTGYNMNWVKQSHGKSLEWIGNINPYYGSTGYNQKFKGKATLTVDKSSSTAYMQLNSLTSEDSAVYYCARGDYGYDEGTWFAYWGQGTLVTVSA
VL: DIVMSQSPSSLAVSAGEKVTMSCKSSQSLLNSRTRKNYLAWYQQKPEQSPKLLIYWASTRESGVPDRFTGSGSGTDFTLTISSVQAEDLAVYYCKQSYNLPFTFGSGTKLEIK
notes: Tested as a mouse monoclonal IgG; also called 3-E05
B3: 9-D4 (antibody, V domains shown)
VH: QVQLQQSGTELARPGASVKLSCKASGFTFTDYGINWVKQRTGQGLEWIGEIYPSSGNSYYNEKFKAKATLTADKSSSTAYMELRSLTSEDSAVYFCARSTYYGSPIDYWGQGTTLTVSS
VL: DIVMTQSHKFMSTPVGDRVSITCKASQDVDTTVAWYQQKPGQSPKLLIYWASTRQIGVPDRFTGSGSGTDFTLTISNVQSEDLADYFCQQYSTYPLTFGGGTKLEIK
notes: Tested as a mouse monoclonal IgG; also called 9-D04
B4: 4-C5 (antibody, V domains shown)
VH: QVQLQQSGAELMKPGASVKISCKATGYTFSNYWIEWVKQRPGHGLEWIGEILPGSGSTNYNENFKGKATFTADTSSNTAYMQLSSLTSEDSAVYYCARRGAYGNFHYWGQGTTLTVSS
VL: EIVLTQSPALMAASPGEKVTITCSVSSSISSSNLHWYQQKSETSPKPWIYGTSNLASGVPVRFSGSGSGTSYSLTISSMEAEDAATYYCQQWRSYPYTFGGGTKLEIK
notes: Tested as a mouse monoclonal IgG; also called 4-C05
B5: 3-M12 (antibody, V domains shown)
VH: DVQLQESGPGLVKPSQSLSLTCSVTGYSITSGYYWNWIRQFPGNKLEWMGYITFDGANNYNPSLKNRISITRDTSKNQFFLKLTSVTTEDTATYYCTRSSYDYDVLDYWGQGTTLTVSS
VL: DIQMTQTTSSLSASLGDRVTISCRASQDISNFLNWYQQRPDGTVKLLIYYTSRLHSGVPSRFSGSGSGTDFSLTVSNLEQEDIATYFCQQGHTLPYTFGGGTKLEIK
notes: as for B1
B6: 3-M9 (antibody, V domains shown)
VH: EVQLQQSGAELVRPGASVKLSCTASDFNIKDDYIHWVKQRPEQGLEWIGRIDPANGNTKYAPKFQDKATITADTSSNTAYLQLSSLTSEDTAVYYCALGYTYWGQGTTLTVSS
VL: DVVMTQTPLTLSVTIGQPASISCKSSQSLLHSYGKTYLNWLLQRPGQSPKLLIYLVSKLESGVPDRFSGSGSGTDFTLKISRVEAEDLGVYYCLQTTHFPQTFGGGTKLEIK
notes: Tested as a mouse monoclonal IgG; also called 3-M09
B7: 8-D15 (antibody, V domains shown)
VH: QVQLKESGPGLVAPSQSLSITCTVSGFSLTSYAITWVRQSPGKGLEWLGLIWTGGGTNYNSALKSRLSISKDNSKSQVFLKMNSLQTDDTARYYCARIYDGYYRYFDVWGTGTTVTVSS
VL: RIVLTQTPKFLLVSAGDRVTMTCKASQSVSNDVAWYQQKPGQSPKLLIYYASNRYTGVPDRFTGSGYGTDFTFTISTVQAEDLAVYFCQQDYSSPWTFGGGTKLEIK
notes: as for B1
B8: 8-O17 (antibody, V domains shown)
VH: QVQLKESGPGLVAPSQSLSITCTVSGFSLTNYGVHWVRQPPGKGLEWLVVIWNDGSATYNSALESRLSISKDNSKSQVFLKMNSLQTDDTAMYYCARHESSNPFAYWGQGTLVTVSA
VL: DILLTQSPAILSVSPGERVSFSCRASQSIGTSIHWYQQRTNGSPRLLIKSASESIAGIPSRFSGSGSGTDFTLSINSVESEDIADYYCQQNNRWPYTFGGGTKLEIK
notes: as for B1
B9: 9-K23 (antibody, V domains shown)
VH: QVTLKESGPGMLQPSQTLSLTCSFSGFSLNTYDVGVGWIRQPSGKGLEWLANIWWNDDKYYNSALKSRLTISKDTSNNQVFLKISSVDTADTATYYCTLYSYDGGFAYWGQGTLVTVSA
VL: QIVLTQSPAIMSASLGERVTMTCTASSSVSSSYLHWYQQKPGSSPKLWIYSTSNLASGVPARFSGSGSGTSYSLTISSMEAEDAATYYCHQYHRSPYTFGGGTKLEIK
notes: as for B1
B10: 5-H12 (antibody, V domains shown)
VH: QIQLQQSGPELVRPGASVKISCKASGYSFTDYCINWVNQRPGQGLEWIGWIYPGSGNTRYSERFKGKATLTVDTSSNTAYMQLSSLTSEDSAVYFCAREDYYPYHGMDYWGQGTSVTVSS
VL: DIVLTQSPTSLAVSLGQRATISCRASESVDGYDNSFMHWYQQKPGQPPKLLIFRASNLESGIPARFSGSGSRTDFTLTINPVEAADVATYYCQQSSEDPWTFGGGTKLEIK
notes: as for B1
B11: 2-H19 (antibody, V domains shown)
VH: EVQLQQSGAELVRSGASVKLSCTASGFNIKDYYMHWVKQRPEQGLEWIGWIDPESGDTEYAPKFQGRATMTADTSSNTAYMQLSSLTSEDTAVYYCYGHDYRVDCWGQGTSVTVSS
VL: DVVMTQTPLSLPVSLGDQASISCRSSQSLVHSNGNTYLHWYLQKPGQSPKLLIYKVSNRFSGVPDRFSGSGSGTDFTLKISRVEAEDLGVYFCSQSTHIPWTFGGGTKLEIK
notes: as for B1
B12: 4-J22 (antibody, V domains shown)
VH: EVQLQQSGAELVRSGASVKLSCTASGFNIKDYYIHWVKQRPEQGLEWIGWIDPENADTEYAPKFQGKATMTPDTSSNTAYLQLSSLTSEDTAVYYCYAWDYSMDYWGQGTSVTVSS
VL: B11 VL with P12S, T77I, S96N, I99V, W101Y, K108R
notes: as for B1
B13: 6-D3 (antibody, V domains shown)
VH: QVQLQQPGAELVKPGASVKMSCKASGYTFTRHWITWVKQRPGQGLEWIGDIYPGSGRTNYNEKFKSTATLTVDTSSSTAYMQLSSLTSEDSAVYYCARDGYLYINYFDYWGQGTTLTVSS
VL: ENVLTQSPAIMSASPGEKVTMTCSASSSVSFMHWFQQKSSTSPKLWIYDTSKLASGVPGRFSGSGSGSSYSLTISSMAAEDVATYYCFQGSGYPYTFGGGTKLEIK
notes: Tested as a mouse monoclonal IgG; also called 6-D03
B14: 3-A4 (antibody, V domains shown)
VH: EVQLQQSGAELVRPGASVKLSCTASGFNIKDDYMYWVKQRPEQGLEWIGWIDPENGDTEYASKFQDKATVTADTSSNTAYLQLSSLTSEDTAVYYCTLWLRRGLDYWGQGTSVTVSS
VL: DIVMTQAAPSVPVTPGESVSISCRSSKSLLHSNGYTYLFWFLQRPGQSPQLLIYRMSNLASGVPDRFSGSGSGTAFTLRISRVEAEDVGVYYCMQHLEYPFTFGGGTKLEIK
notes: Tested as a mouse monoclonal IgG; also called 3-A04
B15: 9-C4 (antibody, V domains shown)
VH: EVQLMESGGDLVKPGGSLKLSCAASGFTFSSYGLSWVRQTPDKRLEWVATITSGGSYTYYPDSVKGRFTISRDNARNTLYLQMFSLKSEDTAMYYCALWSLDYWGQGTTLTVSS
VL: QIVLTQSPAIMSASPGEKVTMTCSANSSLSYMHWYQQKPGTSPKRWIYDTSELASGVPARFSGSGSGTSYSLTISSMEAEDAATYYCHQRRSYPWTFGGGTKLEIK
notes: Tested as a mouse monoclonal IgG; also called 9-C04
B16: 8-K6 (antibody, V domains shown)
VH: QVHLQQPGAELVKPGASVKMSCKASGYTFTSYWITWVKQRPGQGLEWIGDIFPNSGRTNYDEKFKSKATLTVDTSSSTAYMQLSSLTSEDSAVYFCAREGNFGSLDYWGQGTTLTVSS
VL: QIVLTQSPAIMSASPGEKVTMTCSANSNLNYMNWYHQKSGTSPKRWIYDTSKLASGVPARFSASGSGTSYSLTISSMEAEDAATYYCQQWSRNPLTFGAGTRLELK
notes: Tested as a mouse monoclonal IgG; also called 8-K06

Each binder was assayed against T1, human transferrin receptor 1 (human, UniProt P02786 89-760, limits assumed) (assay: average KD, antibody alone; method not given).
T1 construct: also called hTfR1; huTfR1

Binder	Kd [nM]
B1	1.27
B2	0.455
B3	5.8
B4	1.38
B5	0.768
B6	2.5
B7	9.15
B8	2.24
B9	0.32
B10	202
B11	2.06
B12	3.41
B13	0.986
B14	0.436
B15	14.8
B16	0.0678

Target: T2, cynomolgus monkey transferrin receptor 1 (cynomolgus monkey (Macaca fascicularis), UniProt Q5RDH6 89-760 (Pongo abelii entry), limits assumed)
T2 construct: also called cyTfR1; Cyno TfR1
T2 chain: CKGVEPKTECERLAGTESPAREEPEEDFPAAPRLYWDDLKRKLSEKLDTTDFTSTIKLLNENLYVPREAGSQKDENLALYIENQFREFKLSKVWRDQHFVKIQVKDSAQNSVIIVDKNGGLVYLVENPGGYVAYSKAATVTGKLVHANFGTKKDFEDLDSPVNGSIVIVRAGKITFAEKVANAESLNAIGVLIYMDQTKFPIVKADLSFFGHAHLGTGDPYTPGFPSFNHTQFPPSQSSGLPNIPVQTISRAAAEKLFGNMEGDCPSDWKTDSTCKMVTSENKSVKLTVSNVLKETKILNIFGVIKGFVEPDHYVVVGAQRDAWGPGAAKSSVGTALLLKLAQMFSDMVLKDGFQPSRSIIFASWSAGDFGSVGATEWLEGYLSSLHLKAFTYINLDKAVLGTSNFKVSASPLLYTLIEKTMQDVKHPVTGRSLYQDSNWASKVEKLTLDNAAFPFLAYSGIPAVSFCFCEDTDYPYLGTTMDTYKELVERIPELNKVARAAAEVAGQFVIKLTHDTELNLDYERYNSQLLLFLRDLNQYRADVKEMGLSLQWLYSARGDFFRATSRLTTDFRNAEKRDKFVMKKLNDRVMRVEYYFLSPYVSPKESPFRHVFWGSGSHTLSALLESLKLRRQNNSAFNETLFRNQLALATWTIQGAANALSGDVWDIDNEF
Experiment: average KD, antibody alone; method not given

Binder	Kd [nM]
B1	270
B2	0.671
B3	0.868
B4	13.6
B5	5.18
B6	4.37
B7	11.1
B8	1.1
B9	0.662
B10	12
B11	5.75
B12	1.37
B13	0.778
B14	2.32
B15	12
B16	0.376

These binders were tested against T1, human transferrin receptor 1 (assay: Carterra LSA SPR array, IgG captured on anti-IgG lawn, hTfR1 as analyte, 25 C, 1:1 Langmuir fit).
Description: Selected anti-TfR1 antibodies were tested for their binding affinity to human TfR1 for measurement of Ka (association rate constant), Kd (dissociation rate constant), and KD (affinity). […] The binding experiment was performed on Carterra LSA at 25 C. An anti-mouse IgG and anti-human IgG antibody “lawn” was prepared on a HC30M chip by amine coupling. 59 IgGs (58 mouse mAbs and 1 human mAb) were captured on the chip. Dilution series of hTfR1, cyTfR1, and hTfR2 were injected to the chip for binding (starting from 1000 nM, 1:3 dilution, 8 concentrations).
Binding data were referenced by subtracting the responses from a buffer analyte injection and globally fitting to a 1:1 Langmuir binding model for estimate of Ka (association rate constant), Kd (dissociation rate constant), and KD (affinity) using the Carterra™ Kinetics software. 5-6 concentrations were used for curve fitting.

Binder	Kd [nM]	kon [M⁻¹ s⁻¹]
B1	1.8	79800
B2	0.455	22000
B3	5.86	42000
B4	1.61	30100
B5	0.768	166000
B6	2.54	150000
B7	8.22	31300
B8	1.83	49900
B9	0.401	54000
B10	208	66700
B11	2.06	222000
B13	0.986	108000
B14	0.436	447000
B15	14.1	41000
B16	0.0694	144000
